Laboratory results taken from patent US20240287178A1 (YALE UNIVERSITY, published 2024).

Key:
[1] = target: T1, Unc5B (analyte or ligand of the Biacore analysis; species and construct not stated); experiment: Biacore (SPR); format not stated
T1 construct: The phage selection used a recombinant rat Unc5B-ECD Fc fusion (R&D Systems)

Rat UNC5B = target: T2, Rat UNC5B (rat, UniProt O08722); experiment: Biacore
T2 construct: a recombinant rat Unc5B-ECD Fc fusion protein (R&D systems) only for the phage selection; Kept apart from m11, which is the GFP fusion expressed in PAECs; also called rat Unc5B (Biacore analysis)

human Unc5B = target: T3, human Unc5B (human, UniProt Q8IZJ1 27-945); experiment: Biacore
T3 construct: whole, on cells; also called Unc5B (HUVEC)

[2] = target: T4, rat Unc5B coupled to GFP, in transfected porcine aortic endothelial cells (PAECs) (rat, UniProt O08722 27-945); experiment: immunoprecipitation from PAECs transfected with rat Unc5B-GFP, 1 h after antibody treatment
T4 construct: whole, on cells; also called rat Unc5B-GFP; not shown: GFP
Excerpt: Light (LC) and Heavy (HC) chains were sequenced for each antibody (FIGS. 1A-1D and 2A-2D).

mouse Unc5B [3] = target: T5, mouse Unc5B (mouse, UniProt Q8K1S3 27-945); experiment: immunoprecipitation from Bend.3 cells after antibody treatment, western blot for Unc5B
T5 construct: whole, on cells; Endogenous receptor, on cells or in brain lysates; also called Unc5B (Bend.3 cells, mouse brain)

mouse Unc5B [4] = target: T5, mouse Unc5B; experiment: co-immunoprecipitation with the anti-Unc5B antibodies from Bend.3 cells, western blot for Claudin5

B1: antibody 1097 (antibody, V domains shown)
VH: EVQLVESGGGLVQPGGSLRLSCAASGFNLYYYSMHWVRQAPGKGLEWVASIYSYSSYTSYADSVKGRFTISADTSKNTAYLQMNSLRAEDTAVYYCARSYAMDYWGQGTLVTVSS
VL: DIQMTQSPSSLSASVGDRVTITCRASQSVSSAVAWYQQKPGKAPKLLIYSASSLYSGVPSRFSGSRSGTDFTLTISSLQPEDFATYYCQQSYGPFTFGQGTKVEIKR
Q: How did the Kd [1] turn out when B1 was run?
A: 0.7 nM

Q: And the Kd (Rat UNC5B)?
A: 0.712 nM

Q: And the koff (Rat UNC5B)?
A: 0.00104 s⁻¹

Q: And the kon (Rat UNC5B)?
A: 1.46e+06 M⁻¹ s⁻¹

Q: What about the Kd (human Unc5B) of the same binder?
A: 0.692 nM

Q: What about the koff (human Unc5B) of the same binder?
A: 0.000993 s⁻¹

Q: What about the kon (human Unc5B) of the same binder?
A: 1.44e+06 M⁻¹ s⁻¹

B2: anti-Unc5B antibody 1103 (antibody, V domains shown)
VH: EVQLVESGGGLVQPGGSLRLSCAASGFNISYYSIHWVRQAPGKGLEWVASIYSSSGYTSYADSVKGRFTISADTSKNTAYLQMNSLRAEDTAVYYCARGYGLDYWGQGTLVTVSS
VL: DIQMTQSPSSLSASVGDRVTITCRASQSVSSAVAWYQQKPGKAPKLLIYSASSLYSGVPSRFSGSRSGTDFTLTISSLQPEDFATYYCQQHYSYPITFGQGTKVEIKR
Q: Which results are given for B2?
A: Kd [1]: 1.3 nM; Kd (Rat UNC5B): 1.34 nM; koff (Rat UNC5B): 0.000501 s⁻¹; kon (Rat UNC5B): 375000 M⁻¹ s⁻¹; Kd (human Unc5B): 1.29 nM; koff (human Unc5B): 0.000482 s⁻¹; kon (human Unc5B): 375000 M⁻¹ s⁻¹

B3: antibody 1100 (antibody, V domains shown)
VH: EVQLVESGGGLVQPGGSLRLSCAASGFNLYYSSIHWVRQAPGKGLEWVASIYSYSSYTSYADSVKGRFTISADTSKNTAYLQMNSLRAEDTAVYYCARGYAMDYWGQGTLVTVSS
VL: DIQMTQSPSSLSASVGDRVTITCRASQSVSSAVAWYQQKPGKAPKLLIYSASSLYSGVPSRFSGSRSGTDFTLTISSLQPEDFATYYCQQHYGLITFGQGTKVEIKR
Q: Does B3 bind [2]?
A: binds

Q: Does B3 bind (mouse Unc5B [3])?
A: binds

B4: antibody 1101 (antibody, V domains shown)
VH: EVQLVESGGGLVQPGGSLRLSCAASGFNIYYSSMHWVRQAPGKGLEWVAYISSSYGYTYYADSVKGRFTISADTSKNTAYLQMNSLRAEDTAVYYCARGYYAGYFGIDYWGQGTLVTVSS
VL: DIQMTQSPSSLSASVGDRVTITCRASQSVSSAVAWYQQKPGKAPKLLIYSASSLYSGVPSRFSGSRSGTDFTLTISSLQPEDFATYYCQQAGWPITFGQGTKVEIKR
Q: Does B4 bind [2]?
A: binds

B5: antibody 1095 (antibody, human IgG2, kappa, V domains shown)
VH: EVQLVESGGGLVQPGGSLRLSCAASGFNISYSSIHWVRQAPGKGLEWVAYIYPYYGYTYYADSVKGRFTISADTSKNTAYLQMNSLRAEDTAVYYCARGYGIDYWGQGTLVTVSS
VL: DIQMTQSPSSLSASVGDRVTITCRASQSVSSAVAWYQQKPGKAPKLLIYSASSLYSGVPSRFSGSRSGTDFTLTISSLQPEDFATYYCQQHYSLFTFGQGTKVEIKR
Q: Does B5 bind [2]?
A: binds

Q: Does B5 bind (mouse Unc5B [3])?
A: binds

B6: antibody 1099 (antibody, V domains shown)
VH: EVQLVESGGGLVQPGGSLRLSCAASGFNLYYYSIHWVRQAPGKGLEWVASIYPYSSYTSYADSVKGRFTISADTSKNTAYLQMNSLRAEDTAVYYCARGYAFNYWGQGTLVTVSS
VL: DIQMTQSPSSLSASVGDRVTITCRASQSVSSAVAWYQQKPGKAPKLLIYSASSLYSGVPSRFSGSRSGTDFTLTISSLQPEDFATYYCQQHYALFTFGQGTKVEIKR
Q: Does B6 bind [2]?
A: binds

B7: antibody 1102 (antibody, V domains shown)
VH: EVQLVESGGGLVQPGGSLRLSCAASGFNIYYSSMHWVRQAPGKGLEWVASIYSYSSYTSYADSVKGRFTISADTSKNTAYLQMNSLRAEDTAVYYCARSFAMDYWGQGTLVTVSS
VL: DIQMTQSPSSLSASVGDRVTITCRASQSVSSAVAWYQQKPGKAPKLLIYSASSLYSGVPSRFSGSRSGTDFTLTISSLQPEDFATYYCQQAYSPFTFGQGTKVEIKR
Q: Does B7 bind [2]?
A: binds

B8: antibody 1098 (antibody, V domains shown)
VH: EVQLVESGGGLVQPGGSLRLSCAASGFNIYYSYMHWVRQAPGKGLEWVASIYSYSSYTSYADSVKGRFTISADTSKNTAYLQMNSLRAEDTAVYYCARHYAMDYWGQGTLVTVSS
VL: DIQMTQSPSSLSASVGDRVTITCRASQSVSSAVAWYQQKPGKAPKLLIYSASSLYSGVPSRFSGSRSGTDFTLTISSLQPEDFATYYCQQSYSPFTFGQGTKVEIKR
Q: Which results are given for B8?
A: binding result [2]: binds; binding result (mouse Unc5B [3]): binds

B9: antibody 1096 (antibody, V domains shown)
VH: EVQLVESGGGLVQPGGSLRLSCAASGFNLYYSSIHWVRQAPGKGLEWVASIYSYSSYTSYADSVKGRFTISADTSKNTAYLQMNSLRAEDTAVYYCARSYAMDYWGQGTLVTVSS
VL: DIQMTQSPSSLSASVGDRVTITCRASQSVSSAVAWYQQKPGKAPKLLIYSASSLYSGVPSRFSGSRSGTDFTLTISSLQPEDFATYYCQQGFAPFTFGQGTKVEIKR
Q: What does the source list for B9?
A: binding result [2]: binds; binding result (mouse Unc5B [3]): binds

B10: mouse Claudin5 (other, UniProt O54942 1-218, looked up)
chain: MGSAALEILGLVLCLVGWVGLILACGLPMWQVTAFLDHNIVTAQTTWKGLWMSCVVQSTGHMQCKVYESVLALSAEVQAARALTVGAVLLALVALFVTLTGAQCTTCVAPGPVKARVALTGGALYAVCGLLALVPLCWFANIVVREFYDPTVPVSQKYELGAALYIGWAASALLMCGGGLVCCGAWVCTGRPEFSFPVKYSAPRRPTANGDYDKKNYV
Q: Does B10 bind (mouse Unc5B [4])?
A: binds
